Measured values reported in the supplement of paper PMC12042874.
± gives the uncertainty stated by the source.

Experiment: amyloid nucleation score (Sup35N fusion, yeast selection) (log enrichment); library NNK3; higher = more nucleation; inactive = no reads after selection
Procedure, shortened: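 In psi-negative yeast, Sup35N fusions carrying peptides of 20 random codons were induced with 100 μM copper sulfate for 24 hours. The cells then grew 7 days at 30°C on medium lacking adenine and uracil, and plasmid inserts from input and output were Illumina-sequenced, excluding sequences with under 100 input reads. Nucleation score is the DiMSum log enrichment of output over input reads, centred on the mode score of non-aggregating sequences.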
For DLGLNYFESSRDPDGSLLYL, the amyloid nucleation score was “inactive”. With DLHMIATMGECMHCEMHL the amyloid nucleation score was “inactive”. With DLIRQRAETPKMVISWR the amyloid nucleation score was “inactive”. For DLRALPKVFLMLDKYSIMSG, the amyloid nucleation score was “inactive”. For DLSIRKFHGGSMDSLNMEYM, the amyloid nucleation score was “inactive”. With DLSKTGTSNNLLFTERISDI the amyloid nucleation score was “inactive”. With DMCEGYVNYCRMHRAMRHDD the amyloid nucleation score was “inactive”. In the case of DMIINILRSDYQWWSAN, the amyloid nucleation score is reported as “inactive”. For DNCLNCNRCKCIYKDFWLSA, the amyloid nucleation score was “inactive”. In the case of DNICIYWALDGIYECSRHSR, the amyloid nucleation score is reported as “inactive”. With DNLQVTRCYLADWMSSVT the amyloid nucleation score was “inactive”. Work on DNRSL yielded an amyloid nucleation score of -0.501 ± 0.66. In the case of DNTQLSVCWSLSPDTVWKLG, the amyloid nucleation score is reported as “inactive”. In the case of DPFVRDIWQREYQWES, the amyloid nucleation score is reported as “inactive”. DPHCQGFVWGSCMDVWYLSL gave an amyloid nucleation score of 2.7 ± 0.062. With DPINNYSLFFKLCLELHFFA the amyloid nucleation score was “inactive”. With DQGNPSNSSLDLPLGGSFGE the amyloid nucleation score was “inactive”. For DQQCDDVWRRWDGYGRRKKR, the amyloid nucleation score was “inactive”. For DREST, the amyloid nucleation score was “inactive”. For DRFSYFAIFPWYRMCYGMLE, the amyloid nucleation score was “inactive”. In the case of DRGRMCMNAFPFLCWIWFHG, the amyloid nucleation score is reported as “inactive”. With DRQRWSRLCAGQSLYNCGKC the amyloid nucleation score was “inactive”. In the case of DRSIEVDAYSCAVGVYQGPV, the amyloid nucleation score is reported as “inactive”. In the case of DRTHDSSDSCGCCNNL, the amyloid nucleation score is reported as “inactive”. With DRVKACARFGRW the amyloid nucleation score was “inactive”. With DRVSFSITY the amyloid nucleation score was “inactive”. In the case of DSCKPCQKPTAIHVYMVEFP, the amyloid nucleation score is reported as “inactive”. With DSCVPIYVDTYGGDLDVNGG the amyloid nucleation score was “inactive”. For DSFAGVRLGVHASNILIHGQ, the amyloid nucleation score was “inactive”. With DSGLFKYSYGLWEKLLFYRM the amyloid nucleation score was “inactive”. With DSICYHAFYMEEGGS the amyloid nucleation score was “inactive”. For DSKVLSFSWAMFMLIM, the amyloid nucleation score was “inactive”. In the case of DSLLDGYSHWAKWGSTRCVR, the amyloid nucleation score is reported as “inactive”. For DSSFLATFFILVTGCCLLVD, the amyloid nucleation score was “inactive”. For DSSLYKDQYRVRSSGQFKRA, the amyloid nucleation score was “inactive”. Substance DSSSWSHL has an amyloid nucleation score of -0.291 ± 1.4. With DSVVRTSQMSVGYMCVRAEF the amyloid nucleation score was “inactive”. In the case of DSWTAACAHSR, the amyloid nucleation score is reported as “inactive”. With DSYIVYDKQDPS the amyloid nucleation score was “inactive”. In the case of DTTFMQYVAIYVLVSKLFIE, the amyloid nucleation score is reported as “inactive”. For DVALCKYFGLNTIVNSFLAM, the amyloid nucleation score was 1.42 ± 0.081. With DVCRTQSFGVAKTVIFCFLF the amyloid nucleation score was “inactive”. In the case of DVMKICMKLSLHICTVHISS, the amyloid nucleation score is reported as “inactive”. For DVMSILLTNVMLSKSALELS, the amyloid nucleation score was “inactive”. For DVNCALYGKGLDVCRI, the amyloid nucleation score was “inactive”. In the case of DVNFWSLYKFCTRVDFGLSY, the amyloid nucleation score is reported as “inactive”. In the case of DVQCGVIMRGLDKYFDLNSA, the amyloid nucleation score is reported as “inactive”. With DWATFNLIKAVYLRRCSCGL the amyloid nucleation score was “inactive”. For DYGLHDRTYTSIYRVA, the amyloid nucleation score was “inactive”. In the case of DYKMVRYWNLE, the amyloid nucleation score is reported as “inactive”. With DYLLWESKGLVWKCMMTCCG the amyloid nucleation score was “inactive”. With DYLVFFRPLFNSIDSHWIRS the amyloid nucleation score was “inactive”. With DYSFYTFPESAVLCTCSSYG the amyloid nucleation score was -0.682 ± 1.1. For DYTLDANFEGCHGQLTYMND, the amyloid nucleation score was “inactive”. In the case of EAMPHLARGFVVFMCFFRSG, the amyloid nucleation score is reported as “inactive”. For EASLSGGYTEYVGDFMRLVT, the amyloid nucleation score was “inactive”. With EAVYLSLYKECLCLVRVS the amyloid nucleation score was “inactive”. With EAWIIMSRVGI the amyloid nucleation score was “inactive”. Substance ECFEVEQGILDAHSNCWGNI has an amyloid nucleation score of 0.778 ± 0.2. With ECLLPKIAMHVKRMVPQFGT the amyloid nucleation score was “inactive”. With ECRYIPLYREFTRRVSMSGL the amyloid nucleation score was “inactive”. With ECSVSMCEKGITYRSVVERG the amyloid nucleation score was “inactive”.
